In patent US20240182536A1 (MURAL ONCOLOGY, published 2024):
Substitutions are numbered along the chain they refer to. Names and notes keep the numbering of the source.

T1: IL-18 receptors on HEK-Blue IL-18 reporter cells (UniProt Q13478 19-541; O95256 20-599, limits assumed)
T1 sequence (looked up) 1: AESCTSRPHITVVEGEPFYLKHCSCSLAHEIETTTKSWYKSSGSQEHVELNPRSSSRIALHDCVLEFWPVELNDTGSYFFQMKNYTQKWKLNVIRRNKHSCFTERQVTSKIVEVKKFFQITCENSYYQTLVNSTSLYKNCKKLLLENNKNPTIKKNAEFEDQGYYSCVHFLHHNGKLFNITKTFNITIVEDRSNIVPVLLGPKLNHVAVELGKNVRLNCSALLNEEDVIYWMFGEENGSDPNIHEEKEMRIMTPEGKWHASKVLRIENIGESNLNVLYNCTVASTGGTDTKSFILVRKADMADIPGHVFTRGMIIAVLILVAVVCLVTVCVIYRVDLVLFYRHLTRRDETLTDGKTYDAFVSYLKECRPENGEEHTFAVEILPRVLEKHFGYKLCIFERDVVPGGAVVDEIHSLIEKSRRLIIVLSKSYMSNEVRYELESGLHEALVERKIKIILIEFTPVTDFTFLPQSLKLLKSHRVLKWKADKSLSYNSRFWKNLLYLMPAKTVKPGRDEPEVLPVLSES
T1 sequence (looked up) 2: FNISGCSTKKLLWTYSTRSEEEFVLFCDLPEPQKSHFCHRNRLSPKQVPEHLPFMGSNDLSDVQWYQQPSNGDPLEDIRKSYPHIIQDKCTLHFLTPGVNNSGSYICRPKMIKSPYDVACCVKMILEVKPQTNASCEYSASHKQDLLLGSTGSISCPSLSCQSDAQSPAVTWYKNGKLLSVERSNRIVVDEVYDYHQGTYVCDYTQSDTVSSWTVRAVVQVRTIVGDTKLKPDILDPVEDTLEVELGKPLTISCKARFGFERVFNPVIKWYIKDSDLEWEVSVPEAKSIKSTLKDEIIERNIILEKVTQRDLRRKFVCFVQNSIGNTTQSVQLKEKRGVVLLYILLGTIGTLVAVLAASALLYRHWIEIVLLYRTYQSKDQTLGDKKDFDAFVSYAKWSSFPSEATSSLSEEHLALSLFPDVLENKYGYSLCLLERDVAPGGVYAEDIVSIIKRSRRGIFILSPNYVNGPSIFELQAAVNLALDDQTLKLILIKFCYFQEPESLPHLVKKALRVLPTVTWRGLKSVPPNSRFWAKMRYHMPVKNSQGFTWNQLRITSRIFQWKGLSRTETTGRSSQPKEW

T2: IL-18 binding protein (IL-18BP) (UniProt O95998 31-194)
T2 sequence (looked up): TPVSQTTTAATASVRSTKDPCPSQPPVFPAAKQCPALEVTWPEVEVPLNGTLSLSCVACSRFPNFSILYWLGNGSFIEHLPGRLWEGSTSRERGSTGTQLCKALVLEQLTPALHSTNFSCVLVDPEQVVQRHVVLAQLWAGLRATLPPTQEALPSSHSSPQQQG

B1: IL-18 variant G3H, E6Q, K53N, D54S, S55P, T63A, N91I, R104S (ligand)
chain: YFHKLQSKLSVIRNLNDQVLFIDQGNRPLFEDMTDSDMRDNAPRTIFIISMYNSPQPRGMAVAISVKSEKISTLSSENKIISFKEMNPPDIIKDTKSDIIFFQSSVPGHDNKMQFESSSYEGYFLASEKERDLFKLILKKEDELGDRSIMFTVQNED
B2: IL-18 variant K53T, D54H, S55V, T63A, N91K (ligand)
chain: B1 chain with H3G, Q6E, N53T, S54H, P55V, I91K, S104R
B3: IL-18 variant G3P, E6S, K53R, D54Y, S55P, T63I, N91K (ligand)
chain: B1 chain with H3P, Q6S, N53R, S54Y, A63I, I91K, S104R
B4: IL-18 variant G3P, E6R, K53T, D54Y, S55I, T63V, N91G, R104K (ligand)
chain: B1 chain with H3P, Q6R, N53T, S54Y, P55I, A63V, I91G, S104K
B5: IL-18 variant G3R, E6D, D54A, S55Q, T63S, N91K, R104P (ligand)
chain: B1 chain with H3R, Q6D, N53K, S54A, P55Q, A63S, I91K, S104P
B6: IL-18 variant G3Q, E6N, K53T, D54A, N91K, R104P (ligand)
chain: B1 chain with H3Q, Q6N, N53T, S54A, P55S, A63T, I91K, S104P
B7: IL-18 variant G3S, E6Q, K53N, D54T, S55N, T63A, I80T, N91S (ligand)
chain: B1 chain with H3S, S54T, P55N, I80T, I91S, S104R
B8: IL-18 variant G3L, E6N, I22M, T63V, N91T, R104P (ligand)
chain: B1 chain with H3L, Q6N, I22M, N53K, S54D, P55S, A63V, I91T, S104P

Assays:
[1] = molecular target: T1, IL-18 receptors on HEK-Blue IL-18 …; test: cell-based or functional assay
[2] = molecular target: T2, IL-18 binding protein (IL-18BP); test: cell-based or functional assay

Binder | Activity, No BP, DF-100000 [1] | Activity, No BP, DF-500000 [1] | Activity, No BP, DF-2500000 [1] | Activity, +100 nM BP, DF-1000002 [2] | Activity, +100 nM BP, DF-5000003 [2] | Activity, +100 nM BP, DF-25000004 [2] | Ratio (-BP/+BP), DF-1000005 [2] | Ratio (-BP/+BP), DF-5000006 [2] | Ratio (-BP/+BP), DF-25000007 [2]
B1 | 0.18 | 0.09 | 0.07 | 0.21 | 0.12 | 0.08 | 0.86 | 0.78 | 0.91
B2 | 0.28 | 0.12 | 0.12 | 0.23 | 0.1 | 0.07 | 1.18 | 1.24 | 1.58
B3 | 0.15 | 0.08 | 0.07 | 0.14 | 0.08 | 0.07 | 1.07 | 0.97 | 0.99
B4 | 0.14 | 0.08 | 0.07 | 0.15 | 0.08 | 0.07 | 0.93 | 0.96 | 0.99
B5 | 0.07 | 0.08 | 0.07 | 0.07 | 0.08 | 0.07 | 0.98 | 0.98 | 0.96
B6 | 0.07 | 0.08 | 0.07 | 0.07 | 0.09 | 0.08 | 1.03 | 0.89 | 0.95
B7 | 0.24 | 0.11 | 0.08 | 0.23 | 0.11 | 0.11 | 1.05 | 1.03 | 0.71
B8 | 0.08 | 0.07 | 0.07 | 0.09 | 0.09 | 0.07 | 0.8 | 0.82 | 0.97
